Patent US20180094060A1 (PIERRE FABRE MEDICAMENT, published 2018)

Target: T1, recombinant human insulin receptor (human, UniProt P06213-2 28-944, limits assumed)
T1 construct: ELISA coating protein; also called rhIR; human IR
Assay: direct ELISA, coated protein 1 µg/ml, hybridoma supernatant
Protocol: Further characterizations of 810D12 antibody were then performed using hybridoma supernatants such as rhIGF-1R or rmIGF-1R or rhIR ELISA. In all direct ELISAs, proteins of interest were immobilized (1 μg/ml) to the bottom of each well. After saturation, hybridoma supernatants were added to the wells. After a 1-hour incubation period and a washing step, a solution of goat anti-mouse IgG-HRP labelled polyclonal antibody was used for detection, prior to the addition of the TMB substrate. The reaction was stopped with a 1M H₂SO₄ solution before reading the OD with a spectrophotometer at a 450 nm wavelength.

T1 sequence (P06213 other isoform, or with tags, fused parts or gaps limits assumed): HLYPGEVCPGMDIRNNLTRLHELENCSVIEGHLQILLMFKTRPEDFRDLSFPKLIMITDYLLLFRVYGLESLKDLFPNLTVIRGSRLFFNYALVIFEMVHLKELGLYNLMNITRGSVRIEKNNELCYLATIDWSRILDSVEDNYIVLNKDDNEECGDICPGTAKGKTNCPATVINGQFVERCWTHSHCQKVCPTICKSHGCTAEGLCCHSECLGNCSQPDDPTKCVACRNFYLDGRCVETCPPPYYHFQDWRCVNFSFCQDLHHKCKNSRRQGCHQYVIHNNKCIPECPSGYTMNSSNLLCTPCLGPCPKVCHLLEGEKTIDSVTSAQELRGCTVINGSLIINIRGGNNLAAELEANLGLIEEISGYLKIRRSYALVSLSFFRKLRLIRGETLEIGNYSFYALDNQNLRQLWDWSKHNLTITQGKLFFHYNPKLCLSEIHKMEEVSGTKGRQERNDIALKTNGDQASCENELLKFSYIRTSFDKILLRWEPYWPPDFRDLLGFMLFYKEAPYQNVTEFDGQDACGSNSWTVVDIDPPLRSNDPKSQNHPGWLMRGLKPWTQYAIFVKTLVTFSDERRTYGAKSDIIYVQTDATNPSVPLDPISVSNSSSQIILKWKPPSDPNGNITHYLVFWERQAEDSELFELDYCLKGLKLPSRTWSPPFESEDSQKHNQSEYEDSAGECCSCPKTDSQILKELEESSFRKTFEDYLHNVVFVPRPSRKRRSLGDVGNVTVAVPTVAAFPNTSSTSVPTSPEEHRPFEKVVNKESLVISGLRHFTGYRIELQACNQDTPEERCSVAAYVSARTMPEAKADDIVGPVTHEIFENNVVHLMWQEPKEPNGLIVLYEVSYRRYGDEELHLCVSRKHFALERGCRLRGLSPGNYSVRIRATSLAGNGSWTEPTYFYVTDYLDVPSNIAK

binding result: no binding (tested: 5 µg/ml)
B1: 810D12 monoclonal antibody (secreted by hybridoma CNCM I-4893) (antibody, V domains shown)
VH: EVQLQQSGPELVKPGASVKMSCKASGHTFTSYMLHWVKQKPGQGLEWLGFINPYNDVTKYNENFKGKATLTSDKSSSTAYMELNSLTSEDSAVYFCVTTAYYGNGRYFDVWGAGTTVTVSS
VL: DIQMTQTTSSLSASLGDRVTISCRASQDITNYLTWYQQKPDGTVKVLIYYTSRLYSGVPSRFSGSGSGSDYSLTINNLEQEDIATYFCQQGYSLPWTFGGGTKLEIK
notes: Murine monoclonal antibody from a Balb/C hybridoma; The ELISAs used hybridoma supernatant; also called 810D12 antibody; 810D12I-4893
